According to patent publication CN116063478A (BEIJING SHUNYUANTIAN BIOLOGICAL PRODUCTS CO LTD, dated 2023):

Target: 重组人Bromodomain结构域结合蛋白4(BRD4,区域49-170aa)(Biovision，货号:7643-100) (human, UniProt O60885 49-170)
Assay: BLI (Fortebio Octet), binding kinetics; format not stated

B1: BRD4-3F14单抗 (antibody, V domains shown)
VH: VKPGGSLKLSCAASRGWVDPYRMSWVRQTPDKRLEWVAIQITGHDFDYYPDSVKGRFTISRDQDKQTLYLQMSSLKSEDTAMYYCLGPKAVKHLELWGQGTTVTVS
VL: DLVMTQTAPSVPVTPGESVSISCRSTAWWYVWWMLWQLYWFLQRPGQSPQLLIYVYHNLASGVPDRFSGSGSGTAFTLRISRVEAEDVGVYYCWHFPRHKCSFGSGTKLEIK
Kd: 1.07 nM
